Reference: the DeepSol protein solubility set

Experiment: soluble on expression in E. coli; label from the status in PepcDB or PDB records

Soluble on expression in E. coli, not soluble:
MGSDKIHHHHHHMYELYFNWKFIWKKVGLASLTTNSTTYHSEPAYRVNLLAISSKEADFFFKMRDTLTSVMTEKLEPRYFRKGAEEGKRYTVDEARFSFRNGMCYVNQKRVRKDGSITETEQSDNRCIYDMLTILAQARSFDPKEYTIGQRIQFPMATGRRVEEQTLIYRGIKKITAENDTTYRCLIFSLVEYNKKGKEKEVITFYVTDDRNHLPVRLDMHLNFGSAKAFLKSVSGYRHPQTSIVTK
MGSDKIHHHHHHMYKNSMVIGKFYPPHAGHAHLINTAAAQSENVSVLVLGNRFESITVADRTTWLAAEFEDIAGVHVIGMPNDCPEDYDSEEIWKAQSELMRLALKTHGVTEVEAVFSSEEYGAQLAQAFGAEHVLVDQSRTTFPISGTLCRDDLGSAWPFIIGPARQGLATRIILVGAESSGTSTLAKALTEHYRPRFPGITDVPEYGRDYTYEKFDALRAKMPEAVLEDMVWNEQDFGRIATRQNEMENAAADACPLVIADTDSLATTLWERFYIGERSYGSYLAASNLPPRDLYLITDHEGVEFEDDGWREGEHRRAEMTEWFKEALTAEGHSWILVSGDHERRKQTAVEIIELILMQRSKFTSPPWATRTVLEGAAV
MGSDKIHHHHHHMYSCYNNFVKYALTMQFDIEVDVMYEVKLDAFNGPLDLLLHLIQKYEIDIYDIPMKALTEQYMQYVHAMNQLEINVASEYLVMASELLMIKSKLLLPQTSIEEDIEEDPREDLVGRLIEYQNYKEYTEILNTMKEERDLYFTKHPTDLTHLETNESWDPNQTIDLTELIVAYQRVKNRVELNTPKSVEIKKETFTIQQATAQVTERLKQHESFNFFSLFTFHEPVEQVVTHFLAILEMSKSGIVNIKQTKQFDDIDIIRGVNYSIG
MGSDKIHHHHHHMYSIVEGDRVLEIGFMEHFMFLDFPTLVDIPIGLPKKGERECDRLTRRILSKRAASVFTVPCRVAVYRESYEDALRVNRECQGKGFPVQFWHIVEKVREVDVFLRSYPDLSDQIRESHPELCFLRISSKMMKSKHTREGLNQRIEILREHLVFDVENLQRICREYRIHIHDVLDSLVLALAQQFPLERIPEDPPLDEHGLPMQIIAPARTQRSPNPE
MGSDKIHHHHHHMYVENACYQKAILPEHVGNALIESLPKKLTDEELVDKLANYPKCLTEDTQNDPEIRAEYLTRIKRLRQPQLVYFDVFRAVEIAIKDGYSAKNPLSPTTMNYLHYSLEDRPIIEPNTGFFKPKGCGITIIGESGVGKTSMLEQVLSIYPDVIKHQSYSGMSLPLTQVVWLKVDCPDDSSVKGLCHRILDEIDRKLDIKDTKPQNTIALLIKQIEAKMKSNYLGILVIDEMQNLNTAKAGGAERLLGFLHNLMNNLGIPILFCANPPFDKLLSKTLKAARRAESGGYFDIGLLKNSEDEWGLFVDELWKLQWTNVQTPLTQDLSDRLFNLSVGNMDLAVRIFYASQRAVIGSLNERITTDVLDKGASIAIRASKSTTDELRLSLLKRKNESKKETPNNEASEEAKVITESKGKFVTIPGDLSRPHHPEFAERITELQYEDDLHALIEDPALIQRASEEEHPLDMLKSAGLFCEDPLKTFG
MGSDKIHHHHHHNEEIEKAVQPVEISFNTAVSKTTRATTLVNSAFTKFTAYAYSTTGAFADATKVNALISGAEFTKGENSAWGSGNSVFYWPATDQVSFFAFSPNTTKQLSWGAAVANTAPTLTYTVEGTVEKQEDLVVAEAMNKQKATSGSTEAVALNFKHALTKVGFKIKGEGSGVTYTLNKIVINAKNKGVYTYGATSTTNETTLGTWTIPSDATATAYTVEPTEALSITGADNGGTANETLVEADYTAMLIPQNLTGVTFEIYYKAEAGGAILCDKTTTPEEITFTDGTWTAGQSVAYVLTLKGVEKMSITGSVADSWDFTETPK
MGSDKIHHHHHHQEGRSDPLEGFNRTMFNFNYDVLDPYVVRPAAVAWRDYVPTPARNGLGNFFNNLEEPATMVNYFVEGKPYKAMIHFNRFFLNTLLGMGGLIDVASMANPKLAKEESRRFGSTLGNYGVGYGPYVVLPGYGSVTPREDGGGVADTLYPMLSYLTFWMSAGKWAIEGLETRAQLLDSDGLLRNSSDPYLMIREAYFQRHDFLASDGQIAPQQNPNAAAIEDSLDEIDSAK
MGSDKIHHHHHHQIAPAPSTGYNCDLALYSVPQANLLARSLQGDTVADQQYRQLVRELAMELRNCRQQVWPRKMAIWVRLYSCDLRPGGLDSLFDGLQALGYNEVFIETFYDGRVLLPAADNPTVWPSVVAEPGLERVDLLAEAIRKGRERGMSVYAWLFTLNYGYSYSQRSDRQDTLARNGRSESSLEIVSGGAQVFVDPFNPVARQDYQTLLRSVLSRRPDGVLFDYVRYPRGTGAASVMTKVADLLIHTTAARQAWINQLNTPAGQALLTEYLDTGRLSPSDRNQLVLLLGDRLKELNLRQDVDPLWSLAVYHAWRGVVEFVDEAVGTVAQAGLPSGAVFFPFGNARVGQQGWDSRMQPWDRFPNSMEYHPMSYALCGDRHDCVMAEVQRVLEAKPNSIVQPAIAGTWGANFNAHLPLEQRMAALRSTFGDRIDRVSHFSLAWMDPQGERQRQRCRL
MGSDKIHHHHHHQISGDTVKIGFITDMSGLYADIDGPGGVEAIKLAISDMKGTVAGKKIELVYADHQNKADVAASKAREWFDTQGVDMLIGGTNSGTALAMTKVAAEKKKPFIAIGAGTSRISNEDCTPYSIHYAYDTVALANGTGSAVTKAGGKSWYFLTADYAFGQSLQNDTSNVVTKSGGQVLGSVKHPLSASDFSSFLLQAQSSKAQILGLANAGGDTINSIKAANEFGITKTMKLAGLLMFINDIHSLGLNATQGMYMTDSWYWNQSPEARAWSRRFFEKMKRMPSSIQAADYSAAMHFLKAVEAAKTDDGDKVMAQMKAMPINDFYAKGSIRKEDGRGIHDMFLLQVKSQQESTEPWDYFKVVEKIPGEQAFTKLADSKCPLVKK
MGSDKIHHHHHHQSGPLRLEITEGVIEPLPFALPTFLAVGGAEDAAADVSRVIAADLRGTGLFRQIPPDAYISQITNFGAPVAYPDWQAINAQALITGQVEARADGQLVVRFRLFDVFSQAPLGEGLQFVGPADSWRRMAHTVADQVYSRITGEGGYFDTRVAFIAEEGPKNARLKRLAIMDYDGANVQFLTDSRSIVLAPRFSPQGDRILYTSYESGFPQVYIMDVATVQRRPLEAIPAETMTFSPRFSPSGQSVVFSLVDGSNTDIYSLDLATGTRRQLTQAPSIETAPSFSPDGSQIVFESDRSGNQQIYIMPADGGEARRVSAGTGRYGTPVWSPRGDYIAFTKQENGRFHIGVMRTDGSDERLLTSSFLDEGPTWAPNGRVIMFTRETPGDDGAPAVYSVDISGRNLQRVATPGMASDPAWSPLQS
MGSDKIHHHHHHRDMEIGDSGNVEIEMGEAAFVLKTSLSSLETKSLSDAGTLPASMDEAEINNCTLIFFEGTQVSSIMEGLFVNKENYIVKTKDGTKDDWAKVILKVKKPSPYSVMVIANSSKSFAGCQSENNIKDIIQDDKDALVKVGKMDISFDTDFAGYPTIAEALGKPLEIGAIPLSQLTARIELAEFNVSGFQGASVKEKVTVTGVDLLNLNPESYTINEQTHKNATYLSESKTCNVEVYNGVSDLPSTYSFVDNKNLLSFYSFRNLAKAESDQVKMQVRFKIGNSNEERTTRPFVINKEGNILHGVKSGYVYRLVVNMTIIGDKVETELLCYTRDWLNNTISIPMEDN
MGSDKIHHHHHHRPYTPDYEIVPEYTNADTWKAYEAFNEHLLDQNKFIYKSSTADKAAVDRWNGAAAIWCQPTYWDMAMNAYKRAKAEGDTQKEQKFKQLCDDLFAGNKAHYANFDFDDNNENTGWFIYDDIMWWTVTLARAYELFGVEEYLSLSEESFGRVWYGSEKVGDTGSYADPEKGLGGGMFWQWQPIKNPNPNEADHGKMACINFPTVVAALTLYNNVPTGRTESTDSHPSYQTKEQYLAKGKEIYAWAVENLVDVTTGQVADSRHGNGNPAWKDHVYNQASYIGASVLLYKATGEKQYLDNAVMAADYTMNTISGTFDLLPFETGAEQGIYTAVFAQYIAMLVYDCDQTQYIPFVKRNINYGWANRDKTRDICGGDYTKLQVEGDAVESYSASGIPALMLLFPTDK
